Our source for the ratio to parent values is publication PMC7090148 (2020).

B1: Mouse OFD1, wild type [mouse] / NTAP-tagged TRAPPC12 [mouse] (parent complex)
chain 1: MAQSNMPHKSDVLSQDELRKKLYQTFKDRGVLDTLQTQLRNQLIHELMHPVLSGEVKPPSISVEGSALLIGASNSLVADHLQRCGYEYSLSVFFPESGLAKEKIFTMQDLLQLIRINPSSSLYKSLISGFDKENKKGFLMSFLKELAEYYQAKESCDAETQTSTTFPSQVSLAEKFQLIDAQFADGFPHRSKLESLETKLNEYKKEVQHQLQVEMCHKLKYFREAEITKVKMEERRKYEKELAEFQNEFERTCQAKNEALISQEKNSLERIKKHREMESKEIYAQRQLLLNDIALLRGREAELKERIETFELTQKLQEEKIKSEAEALERREQNLKNIEDTYDQKLKTELLKYQLELKDDYITRTNKLLEEERKNKEKTIHLQEELTVINSKKEELSKSVKHMKEVELELESVKAQFLAISKQNHLLNEKVREMSDYSQLKEEKVELQAQNKLLKLQLEETRNENLRLLDRITQPPPELVIFQKELQKTEKAMELEHKDFETHRQALEKQLQSEIENSAQLRTQIAEYDASVKRLTVQVAELKSQLKQTQIALENEVYRNPKHSLIHSLSGLLLSGKMAPHSEDKSGDFLNVPLEQNKVIAGAVMSRVPPYVNTATEASSPESDFEFIASSTKAKVRELEQEAERLEKAFRTYYQRATQNPSTSPQPAKSPPSVNSVAALRSIASSSMDRPVSAEDRVVSEQPLGDMLKEEMSDMSKAFMGSVVSRPRRTSSSTRLSSTPHPKSRRSLDNEMYLEGLGRLHMTSSSPLLDRVSASPAASPSPCPERTAQASPVPSRHSFSGLPEQNACLYQRQTETQDKSELSNVDKQSLKDEKFEPPFRWNKTEQFEAEGLHPAGDMPGIDFAVATQSSRLISYDYPSAVQSQTGEQDEQELWELHMKERRQREEQRHNERQEALERERRELGKLEQERRMIEESLKMEMEEELEKSVQDQKDKSAHCENTLEKYMKIIQQRQEESNADKSSKKSGKECSLVDMMMPSDKDESSPGFSHEEPDDMW
chain 2: METAKDGEQSPSEASPSAQAGPENIPEPMSREEESQPLYHEETIDLGGDEFASEENEPTSEGSHNFGDKLNEHMMESVLISDSPNNSEGDVGDLGCLQDVGEPPRGATDHRLPSSTDKEVVDTLSNGSETDGDDTPRDISDMTPDSRASLKEDSTQEDVTSMPALENAATEEVGPKDSLAPREEQTSEVSSNQSSSKDEPLPVCTIFSQATATPSQPHLFLQDGFESQMVKSPSFSSTSETSAKTPPPMVQPSPSLSTFFGDTMSSNSLASDFFDSFTTSTFISVSNPNAGSPVPEKLSSLTAPVGEKSPDSTSPSYSTRMDRSESGVSRAPLDVPESPKPFSQIQAVFAGSDDPFATALSMSEMDRRNDAWLPSQATREVLMSVATQQYGTVFIDKENLTMPGLKFDNIQGDAVKDLMLRFLGEKAAAKRQVLNASSVEQSFVGLKQLISCRNWRAAVDLCGRLLTAHGQGYGKNGLPTSHTTDSLQLWFVRLALLVKLGLFQNAEMEFEPFGNLDQPDLYYEYYPHVYPGRRGSMVPFSMRILHAELQQYLGNPQESLDRLHRVKTVCSKILANLEQGLAEDGGLSSVTQESRQASVQLWRSRLGRVLYSMANCLLLMKDYVLAVDAYLTVIKYYPEQEPQLLSGIGRILLQIGDIKTAEKYFQDVEKVTQKLDGLQGKIMVLMNRAFLYLGQNNFAEAHKFFTEILRMDPTNAVANNNAAVCLLYLGKLKDSLRQLEAMVQQDPRHYLHESVLFNLTTMYELESSRSMQKKQSLLEAVASKEGDSFNTQCLKLA

In the experiment the parent is B1. Put plainly: co-IP (IP: anti-Myc, immunoblot); IP: anti-Myc; 0.5% input; parent: 1. In general terms: In western blotting, separated proteins are transferred to a membrane and probed.
Take chain 1 S435R: the ratio to parent was determined as 0.98.

Regarding chain 1 S73F, the ratio to parent came to 0.39.

chain 1 G137S: the ratio to parent stood at 0.91.

For the variant chain 1 A78T, the ratio to parent turned out to be 0.97.
